System: Escherichia coli TOP10
Assay: shrunken log2 fold change of peptide-encoding DNA abundance (4.5 h post-induction vs induction); higher = less antimicrobial activity (less host growth inhibition)
Conditions: time post-induction: 4.5 h; library: site-saturation at positions 5, 18, 19, 20
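Note: peptides expressed intracellularly from a pBAD plasmid library in pooled LB shake-flask culture, induced with 0.3% L-arabinose, DNA abundance read by NGS, three biological replicates, DESeq2 with apeglm shrinkage.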

Sequence | shrunken log2 fold change
RRIRHRPPRLPRPRPRPGPLPRP | 0.0825
RRIRSRPPRLPRPRPRPFTRPRP | 0.0337
RRIRIRPPRLPRPRPRPLDLPRP | -0.415
RRIRCRPPRLPRPRPRPEIGPRP | -0.237
RRIRCRPPRLPRPRPRPNREPRP | -0.134
RRIRIRPPRLPRPRPRPEYVPRP | -0.196
RRIRARPPRLPRPRPRPHLQPRP | 0.439
RRIRMRPPRLPRPRPRPGDKPRP | 0.9
RRIRGRPPRLPRPRPRPCMVPRP | 0.304
RRIRLRPPRLPRPRPRPTEYPRP | -0.0401
RRIRLRPPRLPRPRPRPGYAPRP | 0.119
RRIRPRPPRLPRPRPRPIPQPRP | -0.321
RRIRTRPPRLPRPRPRPDCPPRP | -0.245
RRIRMRPPRLPRPRPRPNNQPRP | -0.0328
RRIRRRPPRLPRPRPRPDVTPRP | -0.0312
RRIRNRPPRLPRPRPRPLTCPRP | -0.149
RRIRTRPPRLPRPRPRPIIKPRP | -0.67
RRIRRRPPRLPRPRPRPYFIPRP | -0.432
RRIRDRPPRLPRPRPRPDFNPRP | -0.188
RRIRMRPPRLPRPRPRPPYCPRP | 0.0371
RRIRRRPPRLPRPRPRPHGQPRP | 0.194
RRIRDRPPRLPRPRPRPYIQPRP | -0.161
RRIRARPPRLPRPRPRPMYYPRP | -0.433
RRIRVRPPRLPRPRPRPMHDPRP | -0.134
RRIRARPPRLPRPRPRPRLRPRP | 0.514

Sequence | shrunken log2 fold change
RRIRYRPPRLPRPRPRPMKTPRP | -0.0156
RRIRDRPPRLPRPRPRPIMCPRP | -0.0425
RRIRNRPPRLPRPRPRPCCHPRP | -0.00931
RRIRNRPPRLPRPRPRPRHKPRP | -0.369
RRIRWRPPRLPRPRPRPNYYPRP | -0.705
RRIRIRPPRLPRPRPRPYRGPRP | -0.155
RRIRPRPPRLPRPRPRPFYEPRP | -0.105
RRIRVRPPRLPRPRPRPMWRPRP | 0.127
RRIRIRPPRLPRPRPRPKMPPRP | 0.0103
RRIRFRPPRLPRPRPRPNINPRP | -0.536
RRIRGRPPRLPRPRPRPHQKPRP | 0.0462
RRIRCRPPRLPRPRPRPQEDPRP | -0.0835
RRIRSRPPRLPRPRPRPHYLPRP | -0.403
RRIRNRPPRLPRPRPRPQTCPRP | 0.0139
RRIRWRPPRLPRPRPRPNQEPRP | -0.119
RRIRVRPPRLPRPRPRPLNWPRP | 1.03
RRIRERPPRLPRPRPRPYHPPRP | -0.248
RRIRRRPPRLPRPRPRPWHDPRP | 0.0389
RRIRKRPPRLPRPRPRPGLSPRP | 0.0644
RRIRQRPPRLPRPRPRPKKHPRP | -0.236
RRIRCRPPRLPRPRPRPGRCPRP | 0.436
RRIRPRPPRLPRPRPRPMKFPRP | -0.248
RRIRDRPPRLPRPRPRPYTWPRP | 0.00489
RRIRMRPPRLPRPRPRPNWFPRP | -0.607
RRIRVRPPRLPRPRPRPVRCPRP | 0.145

Sequence | shrunken log2 fold change
RRIRHRPPRLPRPRPRPPNIPRP | -0.157
RRIRGRPPRLPRPRPRPTKVPRP | 0.414
RRIRCRPPRLPRPRPRPNPMPRP | -0.246
RRIRARPPRLPRPRPRPTWSPRP | 0.67
RRIRLRPPRLPRPRPRPCTDPRP | -0.199
RRIRDRPPRLPRPRPRPMMAPRP | -0.00174
RRIRVRPPRLPRPRPRPGKCPRP | 0.0804
RRIRARPPRLPRPRPRPVMFPRP | 0.283
RRIRIRPPRLPRPRPRPGLHPRP | -0.000332
RRIRDRPPRLPRPRPRPDKTPRP | 0.0138
RRIRHRPPRLPRPRPRPSNSPRP | -0.798
RRIRLRPPRLPRPRPRPQSMPRP | -0.197
RRIRMRPPRLPRPRPRPQRCPRP | 0.551
RRIRERPPRLPRPRPRPYSWPRP | -0.486
RRIRMRPPRLPRPRPRPHFRPRP | 0.0286
RRIRPRPPRLPRPRPRPEEKPRP | -0.0155
RRIRERPPRLPRPRPRPSYKPRP | -1.27
RRIRGRPPRLPRPRPRPRACPRP | 0.847
RRIRTRPPRLPRPRPRPHTGPRP | -0.34
RRIRPRPPRLPRPRPRPKSNPRP | -0.37
RRIRCRPPRLPRPRPRPHTQPRP | -0.55
RRIRVRPPRLPRPRPRPLHWPRP | 0.243
RRIRGRPPRLPRPRPRPQAVPRP | 0.295
RRIRVRPPRLPRPRPRPKTVPRP | -0.012
RRIRNRPPRLPRPRPRPMKEPRP | 0.0626

Sequence | shrunken log2 fold change
RRIRHRPPRLPRPRPRPNWFPRP | -0.0203
RRIRIRPPRLPRPRPRPIPQPRP | -0.14
RRIRRRPPRLPRPRPRPCFKPRP | -0.236
RRIRWRPPRLPRPRPRPDNQPRP | -0.265
RRIRLRPPRLPRPRPRPRMCPRP | -0.0246
RRIRGRPPRLPRPRPRPPAKPRP | 1.48
RRIRDRPPRLPRPRPRPMVHPRP | 0.234
RRIRRRPPRLPRPRPRPVFRPRP | 0.226
RRIRWRPPRLPRPRPRPDALPRP | 0.63
RRIRFRPPRLPRPRPRPEQWPRP | -0.156
RRIRSRPPRLPRPRPRPTRPPRP | 0.645
RRIRYRPPRLPRPRPRPQDWPRP | -0.258
RRIRCRPPRLPRPRPRPTAPPRP | 0.826
RRIRCRPPRLPRPRPRPWWDPRP | 0.00335
RRIRCRPPRLPRPRPRPPRIPRP | 0.48
RRIRWRPPRLPRPRPRPEIRPRP | 0.00534
RRIRHRPPRLPRPRPRPIWSPRP | -0.085
RRIRFRPPRLPRPRPRPHPLPRP | -0.16
RRIRDRPPRLPRPRPRPKTFPRP | 0.00972
RRIRTRPPRLPRPRPRPKRTPRP | -0.132
RRIRMRPPRLPRPRPRPGQQPRP | 1.34
RRIRPRPPRLPRPRPRPCHIPRP | -0.821
RRIRMRPPRLPRPRPRPGYQPRP | -0.0727
RRIRLRPPRLPRPRPRPANDPRP | 0.0379
RRIRLRPPRLPRPRPRPRTWPRP | 0.111

Sequence | shrunken log2 fold change
RRIRTRPPRLPRPRPRPIEDPRP | 0.0177
RRIRIRPPRLPRPRPRPVYNPRP | -0.314
RRIRFRPPRLPRPRPRPFCPPRP | -0.386
RRIRPRPPRLPRPRPRPITIPRP | -0.197
RRIRGRPPRLPRPRPRPKMKPRP | 0.723
RRIRVRPPRLPRPRPRPFLLPRP | -0.769
RRIRVRPPRLPRPRPRPVDLPRP | 0.0988
RRIRERPPRLPRPRPRPAMVPRP | 0.037
RRIRIRPPRLPRPRPRPLCCPRP | -0.317
RRIRCRPPRLPRPRPRPNFLPRP | -0.265
RRIRQRPPRLPRPRPRPPFQPRP | 0.0422
RRIRERPPRLPRPRPRPGPEPRP | 0.129
RRIRDRPPRLPRPRPRPDAPPRP | 0.788
RRIRWRPPRLPRPRPRPEISPRP | -0.161
RRIRRRPPRLPRPRPRPPRTPRP | 1.16
RRIRDRPPRLPRPRPRPMNYPRP | 0.185
RRIRCRPPRLPRPRPRPDKFPRP | -0.296
RRIRDRPPRLPRPRPRPNFEPRP | 0.282
RRIRLRPPRLPRPRPRPFYIPRP | -0.865
RRIRRRPPRLPRPRPRPQRLPRP | 0.124
RRIRDRPPRLPRPRPRPRRAPRP | 0.691
RRIRQRPPRLPRPRPRPWLAPRP | 0.136
RRIRDRPPRLPRPRPRPHDHPRP | 0.00042
RRIRQRPPRLPRPRPRPGCWPRP | 0.548
RRIRWRPPRLPRPRPRPYNMPRP | -0.883
